US9453838B2, “Methods for making microarrays and their uses” (Asociación Centro De Investigación Cooperative En Bioma …, priority 2013, dated 2016)

Assays:
Conditions in all cases: RNAse-B 50 μg/mL in PBS
ConA = ConA (Canavalia ensiformis, UniProt P02866)
Procedure: 0.4-0.3 mg/mL (glyco)protein solutions (Concanavalin A, ConA; WGA; and Galanthus nivalis agglutinin, GNA, lectins and RNAse B glycoprotein) were prepared in PBS, and 50 drops (˜0.3 nL per drop) were deposited onto the surface with a dot pitch of 750×750 μm. Slides were then incubated overnight at room temperature in 90% humidity, washed with PBS, quenched with ethanolamine and dried by purging Ar. Slides were stored at −20° C.
A lectin array of ConA, GNA and WGA was printed onto slides as described above, and Cy3-labelled or unlabelled RNAse-B (50 μg/mL in PBS) was added to wells. RNAse B binding and lectin modifications were analyzed by fluorescence imaging and MALDI-Tof MS (FIG. 12).

[1] = target: T1, GNA (Galanthus nivalis agglutinin) (Galanthus nivalis, UniProt P30617); experiment: Lectin array, RNAse B binding by fluorescence scanning and MALDI-Tof MS
T1 sequence (P30617 20-128): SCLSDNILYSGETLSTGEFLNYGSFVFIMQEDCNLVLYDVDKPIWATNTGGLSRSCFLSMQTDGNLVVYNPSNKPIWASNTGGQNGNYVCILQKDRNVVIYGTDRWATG
Procedure: (§1) Slides were stored at −20° C.

[2] = system: WGA (Wheat Germ Agglutinin); experiment: as above
Procedure: as §1

B1: RNAse B: RNAse B glycoprotein, glycoforms presenting mannose oligosaccharides M5-M9 (protein, UniProt P61823 27-150, looked up)
Ribonuclease pancreatic: KETAAAKFERQHMDSSTSAASSSNYCNQMMKSRNLTKDRCKPVNTFVHESLADVQAVCSQKNVACKNGQTNCYQSYSTMSITDCRETGSSKYPNCAYKTTQANKHIIVACEGNPYVPVHFDASV
modifications: glycoform B
- binding to ConA (ConA): binding
- binding to GNA [1]: binding
- interaction with WGA [2]: no interaction
